According to patent publication US20210403547A1 (Eli Lilly, published 2021):

How the values were obtained:
Mouse TGF-alpha [1] = biological target: T1, Mouse TGF-alpha (mouse (Mus musculus), UniProt P48030 39-88); assay: SPR (Biacore), antibody captured on chip, ligand injected, KD = koff/kon, 25 C
T1 construct: also called mouse TGFα
Description: (§1) Biacore T2000 instrument (BIAcore® AB, Upsala, Sweden), reagents and Biacore T2000 Evaluation Software Ver 4.1 are used for the Surface Plasmon Resonance analysis. A CMS chip is prepared using manufacturer's EDC/NHS amine coupling method. The surfaces of all four flow cells are activated by injecting a 1:1 mixture of EDC/NHS for 7 minutes at 10 μL/min. […] Un-reacted sites are blocked with a 7 minute injection of ethanolamine at 10 μL/min. Injections of 3×20 seconds of glycine pH 1.5 at 30 μL/min are used to remove non-covalently associated protein. The running buffer is HBS-EP [10 mM HEPES, 150 mM Sodium Chloride, 3 mM EDTA, 0.005% Polysorbate 20].
(§2) Duplicate injections of each ligand concentration are injected at 30 μL/min for 300 seconds followed by a dissociation phase. […] Regeneration is performed by injecting 10 mM glycine pH 1.5 for 30 seconds at 30 μL/min over all flowcell.
(§3) Reference-subtracted data are collected as Fc2-Fc1. The measurements are obtained at 25° C. The on-rate (kₒₙ) and off-rate (koff) for each ligand are evaluated using a “1:1 (Langmuir) Binding” binding model. The affinity (KD) is calculated from the binding kinetics according to the relationship: KD=koff/kₒₙ.

Mouse Epiregulin [2] = biological target: T2, Mouse Epiregulin (mouse (Mus musculus), UniProt Q61521 56-101); assay: as above
Description: as §1, §2, §3

Mouse TGF-alpha [3] = biological target: T1, Mouse TGF-alpha; assay: SPR (Biacore), antibody captured on chip, ligand injected, 1:1 Langmuir fit, 25 C
Description: as §1, §2, §3

Mouse Epiregulin [4] = biological target: T2, Mouse Epiregulin; assay: as above
Description: as §1, §2, §3

Mouse Epigen = Mouse Epigen (mouse (Mus musculus), UniProt Q924X1 53-103); assay: SPR, 25 C
Mouse Epiregulin [5] = biological target: T2, Mouse Epiregulin; assay: cell-based or functional assay
Human TGF-alpha = Human TGF-alpha (human, UniProt P01135 40-89); assay: cell-based or functional assay
Rat TGF-alpha [6] = biological target: T3, Rat TGF-alpha (rat, UniProt P01134 39-88); assay: cell-based or functional assay
Met-human Epiregulin [7] = biological target: T4, Met-human Epiregulin (human, UniProt O14944 63-108); assay: cell-based or functional assay
Cynomolgus Epiregulin [8] = biological target: T5, Cynomolgus Epiregulin (cynomolgus (Macaca fascicularis), UniProt O14944 63-108 (human entry)); assay: cell-based or functional assay
Mouse TGF-alpha [9] = biological target: T1, Mouse TGF-alpha; assay: cell-based or functional assay
Mouse Epiregulin [10] = biological target: T2, Mouse Epiregulin; assay: cell-based or functional assay; remark: listed apart in the source
rat epiregulin = rat epiregulin (rat, UniProt Q9Z0L5 56-101, limits assumed); assay: cell-based or functional assay
rat epigen = rat epigen (rat); assay: cell-based or functional assay
cynomolgus monkey epigen = cynomolgus monkey epigen (cynomolgus monkey, UniProt G7P5K4 23-110); assay: cell-based or functional assay
Rat TGF-alpha [11] = biological target: T3, Rat TGF-alpha; assay: cell-based or functional assay; remark: listed apart in the source
Met-human Epiregulin [12] = biological target: T4, Met-human Epiregulin; assay: cell-based or functional assay; remark: listed apart in the source
Cynomolgus Epiregulin [13] = biological target: T5, Cynomolgus Epiregulin; assay: SPR (Biacore), antibody captured via anti-Fc on chip, ligand injected, KD = koff/kon, 25 C
Description: as §1
(§4) Duplicate injections of each ligand concentration are injected at 30 μL/min for 300 seconds followed by a dissociation phase. […] Regeneration is performed by injecting 10 mM glycine pH 1.5 for 3×20 seconds at 30 μL/min over all flowcell.
as §3

Mouse Epiregulin [14] = biological target: T2, Mouse Epiregulin; assay: as above
Description: as §1, §4, §3

Rat TGF-alpha [15] = biological target: T3, Rat TGF-alpha; assay: as above
Description: as §1, §4, §3

Met-human Epiregulin [16] = biological target: T4, Met-human Epiregulin; assay: as above
Description: as §1, §4, §3

Human HBEGF = Human HBEGF (human, UniProt Q99075 63-148); assay: cell-based or functional assay
Human EGF = Human EGF (human, UniProt P01133 971-1023); assay: cell-based or functional assay
Human Betacellulin = biological target: T6, Human Betacellulin (human, UniProt P35070 32-111); assay: cell-based or functional assay
T6 sequence: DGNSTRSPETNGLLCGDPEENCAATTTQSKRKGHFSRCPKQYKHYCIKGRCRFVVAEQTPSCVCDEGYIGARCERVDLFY

Human Amphiregulin = biological target: T7, Human Amphiregulin (human, UniProt P15514 101-187); assay: cell-based or functional assay
T7 sequence: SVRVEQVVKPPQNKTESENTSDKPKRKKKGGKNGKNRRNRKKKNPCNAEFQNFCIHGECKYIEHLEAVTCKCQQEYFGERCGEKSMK

B1: Antibody III (antibody, mouse IgG1, kappa, V domains shown)
VH: QVQLQQSGPELVKPGASVKISCKASGYTFTDAYINWVKQRPGQGLEWIGWIWPGPVITYYNPKFKGKATLTVDKSSSTAYMLLSSLTSEDSAFYFCARREVLSPFAYWGQGTLVTVSA
VL: DVLMTQTPLSLPVSLGDQASISCRSSQSIVHSTGNTYLEWYLQKPGQSPKLLIYKVSNRFSGVPDRFSGSGSGTDFTLKISRVEAEDLGVYYCFHGTHVPYTFGGGTKLEIKR
notes: Mouse monoclonal antibody with the same CDRs as Antibody I; also called mouse antibody
Kd (Mouse TGF-alpha [1]): 0.038 nM
Kd (Mouse Epiregulin [2]): 215 nM
koff (Mouse TGF-alpha [3]): 2.02e-05 s⁻¹
kon (Mouse TGF-alpha [3]): 541000 M⁻¹ s⁻¹
koff (Mouse Epiregulin [4]): 0.0141 s⁻¹
kon (Mouse Epiregulin [4]): 65500 M⁻¹ s⁻¹
Kd (Mouse Epigen): 365 nM
IC50, neutralization of ligand-stimulated MFc7 cell proliferation (BrDU incorporation), ligand at 0.5 nM (Mouse Epiregulin [5]): 214 nM
IC50, neutralization of ligand-stimulated MFc7 cell proliferation (BrDU incorporation) (Human TGF-alpha): 0.52 nM
IC50, neutralization of ligand-stimulated MFc7 cell proliferation (BrDU incorporation), ligand at 0.5 nM (Rat TGF-alpha [6]): 0.13 nM
IC50, neutralization of ligand-stimulated MFc7 cell proliferation (BrDU incorporation) (Met-human Epiregulin [7]): 1.12 nM

B2: Antibody I (antibody, human IgG4 S228P, kappa, F234A L235A, V domains shown)
VH: QVQLVQSGAEVKKPGSSVKVSCKASGYTFTDAYINWVRQAPGQGLEWMGWIWPGPVITYYNPKFKGRVTITADKSTSTAYMELSSLRSEDTAVYYCARREVLSPFAYWGQGTTVTVSS
VL: DIVMTQSPDSLAVSLGERATINCRSSQSIVHSTGNTYLEWYQQKPGQPPKLLIYKVSNRFSGVPDRFSGSGSGTDFTLTISSLQAEDVAVYYCFHGTHVPYTFGGGTKVEIKR
notes: Humanized IgG4 monoclonal antibody
IC50, neutralization of ligand-stimulated myofibroblast proliferation (Cynomolgus Epiregulin [8]): < 3.5 nM
IC50, neutralization of ligand-stimulated myofibroblast proliferation (Mouse TGF-alpha [9]): < 0.5 nM
IC50, neutralization of ligand-stimulated myofibroblast proliferation (Mouse Epiregulin [10]): < 350 nM
IC50, neutralization of ligand-stimulated myofibroblast proliferation (rat epiregulin): < 350 nM
IC50, neutralization of ligand-stimulated myofibroblast proliferation (rat epigen): < 850 nM
IC50, neutralization of ligand-stimulated myofibroblast proliferation (cynomolgus monkey epigen): < 850 nM
IC50, neutralization of ligand-stimulated myofibroblast proliferation (Rat TGF-alpha [11]): < 0.5 nM
IC50, neutralization of ligand-stimulated myofibroblast proliferation (Met-human Epiregulin [12]): < 3.5 nM
Kd (Cynomolgus Epiregulin [13]): 1.05 nM
Kd (Mouse Epiregulin [14]): 342 nM
Kd (Rat TGF-alpha [15]): 0.0705 nM
Kd (Met-human Epiregulin [16]): 1.29 nM
IC50, neutralization of ligand-stimulated MFc7 cell proliferation (BrDU incorporation), ligand at 0.5 nM (Human HBEGF): > 2000 nM
IC50, neutralization of ligand-stimulated MFc7 cell proliferation (BrDU incorporation), ligand at 0.5 nM (Human EGF): > 2000 nM
IC50, neutralization of ligand-stimulated MFc7 cell proliferation (BrDU incorporation), ligand at 0.5 nM (Mouse Epiregulin [5]): 334 nM
IC50, neutralization of ligand-stimulated MFc7 cell proliferation (BrDU incorporation), ligand at 0.5 nM (Human Betacellulin): > 2000 nM
IC50, neutralization of ligand-stimulated MFc7 cell proliferation (BrDU incorporation), ligand at 0.5 nM (Rat TGF-alpha [6]): 0.19 nM
IC50, neutralization of ligand-stimulated MFc7 cell proliferation (BrDU incorporation), ligand at 0.5 nM (Met-human Epiregulin [7]): 3.15 nM
IC50, neutralization of ligand-stimulated MFc7 cell proliferation (BrDU incorporation), ligand at 60 nM (Human Amphiregulin): > 2000 nM
